From patent publication US20110251266 come the findings set out here.

The target of the data set is beta-NGF (nerve growth factor) (Homo sapiens) (UniProt P01138). As to the kind of experiment: cell_activity. The note with it: as SEQ30(6); 100 nM aptamer; parent 92.7%.
beta-NGF (nerve growth factor) (Homo sapiens), sequence (P01138 122-241): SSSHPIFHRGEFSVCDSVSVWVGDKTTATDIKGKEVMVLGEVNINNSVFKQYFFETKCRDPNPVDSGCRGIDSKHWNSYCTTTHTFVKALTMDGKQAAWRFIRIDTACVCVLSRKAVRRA

As for “GGGAUAAAAAUAGAGUUUGAUAAACACCUGUAUUAAAACCC [SEQ30(6) G20A]”, the activity was 96.1 % inhibition.

Consider “GGGAUAAAAAUAGAGUUUGAUAAACACCUGUAUUAAAACCC [SEQ30(6) G23A]”, for which the activity was found to be 91.2 % inhibition.
